# Patent JP2005330292A (dated 2005)
# Where a chain is given by its changes, count along the chain named.
# B1: H鎖キメラ/L鎖ヒト型化バージョンb抗体 (antibody, V domains shown)
# VH: EVQLQQSGTNLVRPGALVKLSCKGSGFNIKDYYMHWVKQRPEQGLEWIGGNDPANGHSMYDPKFQGKASITADTSSNTAYLQLSSLTSEDTAVYFCARDSGYAMDYWGQGTSVTVSS
# VL: DIQMTQSPSSLSASVGDRVTITCKASQDIKSFLSWYQQKPGKAPKLLIYYATSLADGVPSRFSGSGSGTDYTLTISSLQPEDFATYYCLQHGESPYTFGGGTKVEIK
# notes: Human IgG4 kappa (vector N5KG4P); also called ch-b
# B2: H鎖ヒト型化バージョンb/L鎖ヒト型化バージョンb抗体 (antibody, V domains shown)
# VH: QVQLLESGAVLARPGTSVKISCKASGFNIKDYYMHWVKQRPGQGLEWIGGNDPANGHSMYDPKFQGRVTITADTSTNTAYMELSSLRSEDTAIYYCARDSGYAMDYWGQGTLVTVSS
# VL: B1 VL
# notes: Human IgG4 kappa (vector N5KG4P); also called b-b; bb
# B3: H鎖ヒト型化バージョンi/L鎖ヒト型化バージョンb抗体 (antibody, V domains shown)
# VH: B2 VH with N77S, A79V, Y80F, I93V
# VL: B1 VL
# notes: Human IgG4 kappa (vector N5KG4P); also called i-b; ib
# B4: H鎖ヒト型化バージョンb/L鎖ヒト型化バージョンb2抗体 (antibody, V domains shown)
# VH: B2 VH
# VL: B1 VL with G41E, L46S
# notes: Human IgG4 kappa (vector N5KG4P); also called b-b2
# B5: H鎖ヒト型化バージョンd3/L鎖ヒト型化バージョンb抗体 (antibody, V domains shown)
# VH: B2 VH with K38R, R40A, T74E, N77S, T91S, I93V, Y95F
# VL: B1 VL
# notes: Human IgG4 kappa (vector N5KG4P); also called d3-b
# B6: H鎖キメラ/L鎖ヒト型化バージョンb1抗体 (antibody, V domains shown)
# VH: B1 VH
# VL: B1 VL with Y36F, A43S, L46T
# notes: Human IgG4 kappa (vector N5KG4P); also called ch-b1
# B7: H鎖ヒト型化バージョンj/L鎖ヒト型化バージョンb抗体 (antibody, V domains shown)
# VH: B2 VH with I70F, T76A, S84R, E89A, I93V
# VL: B1 VL
# notes: Human IgG4 kappa (vector N5KG4P); also called j-b
# B8: H鎖ヒト型化バージョンb/L鎖ヒト型化バージョンa抗体 (antibody, V domains shown)
# VH: B2 VH
# VL: B1 VL with Y71F
# notes: Human IgG4 kappa (vector N5KG4P); also called b-a
# B9: H鎖ヒト型化バージョンd/L鎖ヒト型化バージョンb抗体 (antibody, V domains shown)
# VH: B2 VH with T74E, N77S, T91S, I93V, Y95F
# VL: B1 VL
# notes: Human IgG4 kappa (vector N5KG4P); also called d-b
# B10: H鎖キメラ/L鎖ヒト型化バージョンb2抗体 (antibody, V domains shown)
# VH: B1 VH
# VL: B1 VL with G41E, L46S
# notes: Human IgG4 kappa (vector N5KG4P); also called ch-b2
# B11: H鎖ヒト型化バージョンb3/L鎖ヒト型化バージョンb抗体 (antibody, V domains shown)
# VH: B2 VH with K38R, R40A
# VL: B1 VL
# notes: Human IgG4 kappa (vector N5KG4P); also called b3-b
# B12: H鎖ヒト型化バージョンi/L鎖ヒト型化バージョンb1抗体 (antibody, V domains shown)
# VH: B2 VH with N77S, A79V, Y80F, I93V
# VL: B1 VL with Y36F, A43S, L46T
# notes: Human IgG4 kappa (vector N5KG4P); also called i-b1
# B13: H鎖キメラ/L鎖ヒト型化バージョンc抗体 (antibody, V domains shown)
# VH: B1 VH
# VL: B1 VL with F83I
# notes: Human IgG4 kappa (vector N5KG4P); also called ch-c
# B14: H鎖ヒト型化バージョンi/L鎖ヒト型化バージョンb2抗体 (antibody, V domains shown)
# VH: QVQLLESGAVLARPGTSVKISCKASGFNIKDYYMHWVKQRPGQGLEWIGGNDPANGHSMYDPKFQGRVTITADTSTSTVFMELSSLRSEDTAVYYCARDSGYAMDYWGQGTLVTVSSAS
# VL: B1 VL with G41E, L46S
# notes: Human IgG4 kappa (vector N5KG4P); also called i-b2; ib2
# B15: H鎖キメラ/L鎖ヒト型化バージョンa抗体 (antibody, V domains shown)
# VH: B1 VH
# VL: B1 VL with Y71F
# notes: Human IgG4 kappa (vector N5KG4P); also called ch-a
# B16: H鎖ヒト型化バージョンb/L鎖ヒト型化バージョンc抗体 (antibody, V domains shown)
# VH: B2 VH
# VL: B1 VL with F83I
# notes: the construction of its expression plasmid is not described; also called b-c
# B17: H鎖ヒト型化バージョンg/L鎖ヒト型化バージョンb抗体 (antibody, V domains shown)
# VH: B2 VH with R67K, V68A, I70L, T74E, T76S, N77S, E82Q, T91S, I93V, Y95S
# VL: B1 VL
# notes: Human IgG4 kappa (vector N5KG4P); also called g-b
# B18: H鎖ヒト型化バージョンa/L鎖キメラ抗体 (antibody, V domains shown)
# VH: QVQLLESGAVLARPGTSVKISCKASGFNIKDYYMHWVKQRPGQGLEWIGGNDPANGHSMYDPKFQGRAKLTAATSASIAYLEFSSLTNEDSAVYYCARDSGYAMDYWGQGTLVTVSS
# VL: DIKMTQSPSSMYASLGERVTITCKASQDIKSFLSWYQQKPWKSPKTLIYYATSLADGVPSRFSGSGSGQDYSLTINNLESDDTATYYCLQHGESPYTFGGGTKLEIK
# notes: Human IgG4 kappa (vector N5KG4P); also called a-ch
# B19: H鎖ヒト型化バージョンb/L鎖キメラ抗体 (antibody, V domains shown)
# VH: B2 VH
# VL: B18 VL
# notes: Human IgG4 kappa (vector N5KG4P); also called b-ch
# B20: H鎖ヒト型化バージョンa/L鎖ヒト型化バージョンa抗体 (antibody, V domains shown)
# VH: B18 VH
# VL: B1 VL with Y71F
# notes: Human IgG4 kappa (vector N5KG4P); also called a-a
# B21: H鎖ヒト型化バージョンc/L鎖キメラ抗体 (antibody, V domains shown)
# VH: QVQLLESGAVLARPGTSVKISCKASGFNIKDYYMHWVKQRPGQGLEWIGGNDPANGHSMYDPKFQGRVTMLVDTSKNQFSLRLSSVTAADTAVYYCARDSGYAMDYWGQGTLVTVSS
# VL: B18 VL
# notes: Human IgG4 kappa (vector N5KG4P); also called c-ch
# B22: H鎖ヒト型化バージョンi/L鎖キメラ抗体 (antibody, V domains shown)
# VH: B2 VH with N77S, A79V, Y80F, I93V
# VL: B18 VL
# notes: Human IgG4 kappa (vector N5KG4P); also called i-ch
# B23: H鎖ヒト型化バージョンe/L鎖キメラ抗体 (antibody, V domains shown)
# VH: B2 VH with T69S, T74E, N77K, T78I, S84N, I93V, Y95F
# VL: B18 VL
# notes: Human IgG4 kappa (vector N5KG4P); also called e-ch
# B24: H鎖ヒト型化バージョンj/L鎖キメラ抗体 (antibody, V domains shown)
# VH: B2 VH with I70F, T76A, S84R, E89A, I93V
# VL: B18 VL
# notes: Human IgG4 kappa (vector N5KG4P); also called j-ch
# B25: H鎖ヒト型化バージョンd/L鎖キメラ抗体 (antibody, V domains shown)
# VH: B2 VH with T74E, N77S, T91S, I93V, Y95F
# VL: B18 VL
# notes: Human IgG4 kappa (vector N5KG4P); also called d-ch
# B26: H鎖キメラ/L鎖キメラ抗体(キメラATR-5抗体) (antibody, V domains shown)
# VH: B1 VH
# VL: B18 VL
# notes: Mouse ATR-5 V regions joined to human C regions; Both an IgG1 (N5KG1(V)) and an IgG4 (N5KG4P) kappa vector were built; also called ch-ch; chATR-5
# Target: T1, ヒト組織因子(TF)(ヒト膀胱癌細胞J82上に発現) (human, UniProt P13726 33-295)
# T1 construct: whole, on cells; Target of the cell ELISA; also called ヒトTF; 抗原
# Assay: cell ELISA on fixed J82 cells
row,binding result,Binder
1,binds,B1
2,binds,B2
3,binds,B3
4,binds,B4
5,binds,B5
6,binds,B6
7,binds,B7
8,binds,B8
9,binds,B9
10,binds,B10
11,binds,B11
12,binds,B12
13,binds,B13
14,binds,B14
15,binds,B15
16,binds,B16
17,binds,B17
18,binds,B18
19,binds,B19
20,binds,B20
21,binds,B21
22,binds,B22
23,binds,B23
24,binds,B24
25,binds,B25

# Target: T1, ヒト組織因子(TF)(ヒト膀胱癌細胞J82上に発現)
# Assay: cell ELISA on fixed J82 cells; chimeric antibody as the reference
row,binding result,Binder
1,binds,B26

# Target: T2, 可溶型ヒトTF(アミノ酸配列1-219のC末端にFLAGペプチドを連結、CHO細胞発現) (human, UniProt P13726 33-251)
# T2 construct: also called shTF; 可溶型TF
# Assay: dot blot of shTF on nitrocellulose: native, 8 M urea-denatured, and 8 M urea + 5 mM DTT
row,binding result,Binder
1,binds,B2
2,binds,B3
3,binds,B14
4,binds,B26
